Data on one molecule can be found in US20110190200A1 (INDIANA UNIVERSITY RESEARCH AND TECHNOLOGY, published 2011).

The target in experiment [1] is glucagon receptor (human, UniProt P47871 26-477). The experiment in a line: cell-based or functional assay.
In experiment [2] the target is GLP-1 receptor (UniProt P43220 24-463, limits assumed). In words: cell-based or functional assay.

Square brackets hold non-standard residues; d marks the D form. Ends that are not written are not given here. Aib = CC(C)(N)C(=O)O

Chain of glucagon receptor (P47871 26-477): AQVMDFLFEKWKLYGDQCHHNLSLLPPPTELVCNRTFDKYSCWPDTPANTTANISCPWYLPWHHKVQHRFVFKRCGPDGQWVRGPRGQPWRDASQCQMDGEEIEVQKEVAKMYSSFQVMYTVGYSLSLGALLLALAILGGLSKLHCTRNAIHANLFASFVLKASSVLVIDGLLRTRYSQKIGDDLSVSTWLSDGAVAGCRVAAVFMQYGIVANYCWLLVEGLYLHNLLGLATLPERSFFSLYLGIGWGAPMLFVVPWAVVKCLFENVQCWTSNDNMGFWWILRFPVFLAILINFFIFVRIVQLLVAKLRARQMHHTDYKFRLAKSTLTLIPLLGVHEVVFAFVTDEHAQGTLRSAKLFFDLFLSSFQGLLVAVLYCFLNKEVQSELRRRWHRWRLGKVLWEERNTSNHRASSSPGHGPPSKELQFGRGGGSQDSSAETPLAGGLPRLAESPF

On to HSQGTFTSDYSKYLD[Aib]RRA[Aib]DFVQWLMNT [AIB 16, 20 Glucagon], for which the “Glucagon Receptor, Average (assay of Example 13)” value in experiment [1] came out at 0.26 nM. Further, the “GLP-1 Receptor, Average (assay of Example 13)” value in experiment [2] was 13.6 nM.
